According to patent publication US20080213281A1, “Butyrylcholinesterase Variants that Alter the Activity of Chemotherapeutic Agents” (priority 2002, published 2008):
Entries after “also recorded” stand apart in the source; their conditions may differ.

B1: F227A (protein)
chain: EDDIIIATKNGKVRGMNLTVFGGTVTAFLGIPYAQPPLGRLRFKKPQSLTKWSDIWNATKYANSCCQNIDQSFPGFHGSEMWNPNTDLSEDCLYLNVWIPAPKPKNATVLIWIYGGGFQTGTSSLHVYDGKFLARVERVIVVSMNYRVGALGFLALPGNPEAPGNMGLFDQQLALQWVQKNIAAFGGNPKSVTLFGESAGAASVSLHLLSPGSHSLFTRAILQSGSXNAPWAVTSLYEARNRTLNLAKLTGCSRENETEIIKCLRNKDPQEILLNEAFVVPYGTPLSVNFGPTVDGDFLTDMPDILLELGQFKKTQILVGVNKDEGTAFLVYGAPGFSKDNNSIITRKEFQEGLKIFFPGVSEFGKESILFHYTDWVDDQRPENYREALGDVVGDYNFICPALEFTKKFSEWGNNAFFYYFEHRSSKLPWPEWMGVMHGYEIEFVFGLPLERRDNYTKAEEILSRSIVKRWANFAKYGNPNETQNNSTSWPVFKSTEQKYLTLNTESTRIMTKLRAQQCRFWTSFFPKVLEMTGNIDEAEWEWKAGFHRWNNYMMDWKNQFNDYTSKKESCVGL
modifications: Synthetic butyrylcholinesterase variant; VARIANT (227)..(227): Xaa = Ala
B2: F227A/L286W (protein)
chain: EDDIIIATKNGKVRGMNLTVFGGTVTAFLGIPYAQPPLGRLRFKKPQSLTKWSDIWNATKYANSCCQNIDQSFPGFHGSEMWNPNTDLSEDCLYLNVWIPAPKPKNATVLIWIYGGGFQTGTSSLHVYDGKFLARVERVIVVSMNYRVGALGFLALPGNPEAPGNMGLFDQQLALQWVQKNIAAFGGNPKSVTLFGESAGAASVSLHLLSPGSHSLFTRAILQSGSANAPWAVTSLYEARNRTLNLAKLTGCSRENETEIIKCLRNKDPQEILLNEAFVVPYGTPWSVNFGPTVDGDFLTDMPDILLELGQFKKTQILVGVNKDEGTAFLVYGAPGFSKDNNSIITRKEFQEGLKIFFPGVSEFGKESILFHYTDWVDDQRPENYREALGDVVGDYNFICPALEFTKKFSEWGNNAFFYYFEHRSSKLPWPEWMGVMHGYEIEFVFGLPLERRDNYTKAEEILSRSIVKRWANFAKYGNPNETQNNSTSWPVFKSTEQKYLTLNTESTRIMTKLRAQQCRFWTSFFPKVLEMTGNIDEAEWEWKAGFHRWNNYMMDWKNQFNDYTSKKESCVGL
modifications: Synthetic butyrylcholinesterase variant; VARIANT (227)..(227): F227A; VARIANT (286)..(286): L286W
B3: F227A/T284A (protein)
chain: EDDIIIATKNGKVRGMNLTVFGGTVTAFLGIPYAQPPLGRLRFKKPQSLTKWSDIWNATKYANSCCQNIDQSFPGFHGSEMWNPNTDLSEDCLYLNVWIPAPKPKNATVLIWIYGGGFQTGTSSLHVYDGKFLARVERVIVVSMNYRVGALGFLALPGNPEAPGNMGLFDQQLALQWVQKNIAAFGGNPKSVTLFGESAGAASVSLHLLSPGSHSLFTRAILQSGSXNAPWAVTSLYEARNRTLNLAKLTGCSRENETEIIKCLRNKDPQEILLNEAFVVPYGXPLSVNFGPTVDGDFLTDMPDILLELGQFKKTQILVGVNKDEGTAFLVYGAPGFSKDNNSIITRKEFQEGLKIFFPGVSEFGKESILFHYTDWVDDQRPENYREALGDVVGDYNFICPALEFTKKFSEWGNNAFFYYFEHRSSKLPWPEWMGVMHGYEIEFVFGLPLERRDNYTKAEEILSRSIVKRWANFAKYGNPNETQNNSTSWPVFKSTEQKYLTLNTESTRIMTKLRAQQCRFWTSFFPKVLEMTGNIDEAEWEWKAGFHRWNNYMMDWKNQFNDYTSKKESCVGL
modifications: Synthetic butyrylcholinesterase variant; VARIANT (227)..(227): Xaa = Ala; VARIANT (284)..(284): Xaa = Ala
B4: F227A/L286S (protein)
chain: EDDIIIATKNGKVRGMNLTVFGGTVTAFLGIPYAQPPLGRLRFKKPQSLTKWSDIWNATKYANSCCQNIDQSFPGFHGSEMWNPNTDLSEDCLYLNVWIPAPKPKNATVLIWIYGGGFQTGTSSLHVYDGKFLARVERVIVVSMNYRVGALGFLALPGNPEAPGNMGLFDQQLALQWVQKNIAAFGGNPKSVTLFGESAGAASVSLHLLSPGSHSLFTRAILQSGSXNAPWAVTSLYEARNRTLNLAKLTGCSRENETEIIKCLRNKDPQEILLNEAFVVPYGTPSSVNFGPTVDGDFLTDMPDILLELGQFKKTQILVGVNKDEGTAFLVYGAPGFSKDNNSIITRKEFQEGLKIFFPGVSEFGKESILFHYTDWVDDQRPENYREALGDVVGDYNFICPALEFTKKFSEWGNNAFFYYFEHRSSKLPWPEWMGVMHGYEIEFVFGLPLERRDNYTKAEEILSRSIVKRWANFAKYGNPNETQNNSTSWPVFKSTEQKYLTLNTESTRIMTKLRAQQCRFWTSFFPKVLEMTGNIDEAEWEWKAGFHRWNNYMMDWKNQFNDYTSKKESCVGL
modifications: Synthetic butyrylcholinesterase variant; VARIANT (227)..(227): Xaa = Ala; VARIANT (286)..(286): L286S
B5: F227A/L286Q (protein)
chain: EDDIIIATKNGKVRGMNLTVFGGTVTAFLGIPYAQPPLGRLRFKKPQSLTKWSDIWNATKYANSCCQNIDQSFPGFHGSEMWNPNTDLSEDCLYLNVWIPAPKPKNATVLIWIYGGGFQTGTSSLHVYDGKFLARVERVIVVSMNYRVGALGFLALPGNPEAPGNMGLFDQQLALQWVQKNIAAFGGNPKSVTLFGESAGAASVSLHLLSPGSHSLFTRAILQSGSXNAPWAVTSLYEARNRTLNLAKLTGCSRENETEIIKCLRNKDPQEILLNEAFVVPYGTPQSVNFGPTVDGDFLTDMPDILLELGQFKKTQILVGVNKDEGTAFLVYGAPGFSKDNNSIITRKEFQEGLKIFFPGVSEFGKESILFHYTDWVDDQRPENYREALGDVVGDYNFICPALEFTKKFSEWGNNAFFYYFEHRSSKLPWPEWMGVMHGYEIEFVFGLPLERRDNYTKAEEILSRSIVKRWANFAKYGNPNETQNNSTSWPVFKSTEQKYLTLNTESTRIMTKLRAQQCRFWTSFFPKVLEMTGNIDEAEWEWKAGFHRWNNYMMDWKNQFNDYTSKKESCVGL
modifications: Synthetic butyrylcholinesterase variant; VARIANT (227)..(227): Xaa = Ala; VARIANT (286)..(286): L286Q
B6: F227A/L286H (protein)
chain: EDDIIIATKNGKVRGMNLTVFGGTVTAFLGIPYAQPPLGRLRFKKPQSLTKWSDIWNATKYANSCCQNIDQSFPGFHGSEMWNPNTDLSEDCLYLNVWIPAPKPKNATVLIWIYGGGFQTGTSSLHVYDGKFLARVERVIVVSMNYRVGALGFLALPGNPEAPGNMGLFDQQLALQWVQKNIAAFGGNPKSVTLFGESAGAASVSLHLLSPGSHSLFTRAILQSGSXNAPWAVTSLYEARNRTLNLAKLTGCSRENETEIIKCLRNKDPQEILLNEAFVVPYGTPHSVNFGPTVDGDFLTDMPDILLELGQFKKTQILVGVNKDEGTAFLVYGAPGFSKDNNSIITRKEFQEGLKIFFPGVSEFGKESILFHYTDWVDDQRPENYREALGDVVGDYNFICPALEFTKKFSEWGNNAFFYYFEHRSSKLPWPEWMGVMHGYEIEFVFGLPLERRDNYTKAEEILSRSIVKRWANFAKYGNPNETQNNSTSWPVFKSTEQKYLTLNTESTRIMTKLRAQQCRFWTSFFPKVLEMTGNIDEAEWEWKAGFHRWNNYMMDWKNQFNDYTSKKESCVGL
modifications: Synthetic butyrylcholinesterase variant; VARIANT (227)..(227): Xaa = Ala; VARIANT (286)..(286): L286H
B7: F227A/S287P (protein)
chain: EDDIIIATKNGKVRGMNLTVFGGTVTAFLGIPYAQPPLGRLRFKKPQSLTKWSDIWNATKYANSCCQNIDQSFPGFHGSEMWNPNTDLSEDCLYLNVWIPAPKPKNATVLIWIYGGGFQTGTSSLHVYDGKFLARVERVIVVSMNYRVGALGFLALPGNPEAPGNMGLFDQQLALQWVQKNIAAFGGNPKSVTLFGESAGAASVSLHLLSPGSHSLFTRAILQSGSANAPWAVTSLYEARNRTLNLAKLTGCSRENETEIIKCLRNKDPQEILLNEAFVVPYGTPLXVNFGPTVDGDFLTDMPDILLELGQFKKTQILVGVNKDEGTAFLVYGAPGFSKDNNSIITRKEFQEGLKIFFPGVSEFGKESILFHYTDWVDDQRPENYREALGDVVGDYNFICPALEFTKKFSEWGNNAFFYYFEHRSSKLPWPEWMGVMHGYEIEFVFGLPLERRDNYTKAEEILSRSIVKRWANFAKYGNPNETQNNSTSWPVFKSTEQKYLTLNTESTRIMTKLRAQQCRFWTSFFPKVLEMTGNIDEAEWEWKAGFHRWNNYMMDWKNQFNDYTSKKESCVGL
modifications: Synthetic butyrylcholinesterase variant; VARIANT (227)..(227): F227A; VARIANT (287)..(287): Xaa = Pro

Assay: HPLC assay of CPT-11 conversion to SN-38 by conditioned media of transiently expressed BChE variants
Format: biochemical
Details: for SN-38 formation from CPT-11 (in words): conditioned media, HPLC, compared to mock or wild-type; for Fold improvement in CPT-11 conversion: compared to wild-type butyrylcholinesterase, conditioned media exposed to 20 mM CPT-11 for 72 hours at 37° C., conservative values
Method: Butyrylcholinesterase variants were assayed for CPT-11 conversion activity using fluorescent High Performance Liquid Chromotography (HPLC) detection of SN-38 formation as described in Dodds and Rivory, Mol. Pharmacol. 56:1346-1353 (1999), which is incorporated herein by reference. Briefly, conditioned media from transiently expressed BChE variants were exposed to 20 mM CPT-11 for 72 hours at 37° C. and analyzed by HPLC for SN-38 formation (peak at about 4 minutes column retention time).

Molecule	SN-38 formation from CPT-11 (in words)	Fold improvement in CPT-11 conversion [fold]	Fold improvement in CPT-11 conversion (listed as F227A/L268S) [fold]
B1	produced a small amount of SN-38; also recorded: increased CPT-11 conversion to SN-38		
B2	increased CPT-11 conversion to SN-38	>42	
B3	increased CPT-11 conversion to SN-38	>7	
B4	significant conversion; also recorded: increased CPT-11 conversion to SN-38	>50	≥ 50
B5	increased CPT-11 conversion to SN-38	>10	
B6	increased CPT-11 conversion to SN-38	>35	
B7	increased CPT-11 conversion to SN-38	>6	
